This passage reports stoichiometry N results from paper PMC3406085.

The target of this assay is Merkel cell polyomavirus (MCPyV) major capsid protein VP1, amino acids 38-320, unassembled pentamer (Merkel cell polyomavirus (w162)). Nature of the assay: crystal structure; unassembled VP1 pentamers, native and soaked with DSL, 3SLN or GD1a; hanging drop at 20°C, 100 mM sodium cacodylate pH 6.5, 6% PEG 3,350, 300 mM magnesium chloride; four VP1 pentamers in the asymmetric unit.

Regarding “Merkel cell polyomavirus (MCPyV) major capsid protein VP1, amino acids 38-320, unassembled pentamer (domain or fragment)”, the stoichiometry N (in general, the number of molecules, sites or subunits per partner or assembly) is 5.
